Measured values as given in patent US20040248211A1, “ICAM-related protein” (priority 1992, published 2004).

Legend:
[1] = tested on: resting lymphocytes; assay: Restoration of anti-CD3 proliferation by IL-2; assay type: cell-based; settings: human rIL-2 30 U/ml
Method: Human PBL were fractionated and incubated on immobiized monoclonal antibodies as described in Section I above. The cells were collected, washed and replated on anti-CD3 either in the presence or absence of human rIL-2 at 30 U/ml.

[2] = tested on: PBMC; assay: PBMC activation markers, immobilized antibody plus low dose anti-CD3; assay type: cell-based, human; settings: immobilized antibody 10 μg/well plus anti-CD3 0.025 μg/well
Method: Ten μg of anti-ICAM-R monoclonal antibodies ICR-1.1 or ICR-4.2 (or control monoclonal antibodies to HLA Class I; Serotec, Oxford, England) were added per well of 96-well flat bottom tissue culture plates either in the presence or absence of anti-CD3 antibody initially added at 0.025 μg/well and washed to remove unbound antibody. Freshly obtained PBMC were immediately added (2×10^5 cells/well). The cells were then incubated for a total of either 16 hours or 3 days at which time the cells were removed and washed 2 times in ice cold FACS buffer. Two×10^5 cells were then resuspended in 50 μl ice cold FACS buffer, and 5 μl of FITC-conjugated anti-CD69, anti-transferrin receptor, anti-IL-2 receptor antibody or anti-FITC conjugated control Ig was added. The cells were incubated at 4° C. for 30 minutes and then washed 2 times in 0.5 ml ice cold FACS buffer. After the final wash the cells were resuspended in 0.5 ml FACS buffer and fluorescence determined by FACScan analysis. […] The effect was more pronounced with antibody ICR-1.1. Similar results were also obtained after 16 hours in culture.

[3] = tested on: cell lines which express ICAM-R; assay: Homotypic aggregation assay, cell line panel; assay type: cell-based, human; settings: presence and absence of PMA
Method: In order to determine whether ICAM-R is involved in homotypic cell adhesion, aggregation assays were performed with a panel of cell lines which express ICAM-R including T lymphoblastoid cell lines (SupT1, CEM, Molt 4, Hut 78, Jurkat, SKW3), B lymphoblastoid cells lines (Jijoye, Raji), monocytic cell lines (U937, HL60), a myelogenous cell line (KG-1) and the erythroleukemia cell line K562. To determine the function of the ICAM-R molecule, the cells were incubated with various antibodies before aggregation was assayed. Anti-ICAM-R supernatants produced by hybridomas ICR-2.1, ICR-1.1, ICR-4.2, and ICR-3.1 were used as well as antibody preparations known to block aggregation through a β2 integrin pathway: TS1/18 (ATCC HB203) specific for the CD18 molecule, the β-subunit of LFA-1; TS1/22 (ATCC HB202) specific for the CD11a molecule, the α-chain of LFA-1; and LM2/1 (ATCC HB204) specific for the CD11b molecule, the α-subunit of MAC-1. Purified anti-ICAM-1 antibody and hybridoma supernatant directed against the a-chain of the VLA-4 molecule (hybridoma clone 163H, Michael Longenecker, Alberta, Canada) were used as controls.
Aggregation assays were done in duplicate, with and without addition of PMA (50 ng/ml). 3×10^5 cells in RPMI 1640 medium with 10% fetal calf serum were added in a flat-bottomed 96-well microtest plate. […]

[4] = tested on: PBMC; assay: PBMC proliferation with or without rIL-2; assay type: cell-based, human; settings: immobilized antibody 10 μg/well; with or without rIL-2 10 units/ml; 3 days
Method: Ten μg of ICAM-R monoclonal antibodies ICR-1.1 or ICR-4.2 (or control IgG1 and IgG2) antibodies) in PBS were added per well of 96-well flat bottom tissue culture plates and the plates were incubated for 3-4 hours at 37° C. in a 5% CO2 incubator. After incubation, each well was rinsed 3 times with PBS and freshly obtained PBL were added to a final concentration of 2×10^5 cells/well in a volume of 200 μl. Ten units/ml human recombinant IL-2 (Genzyme, Boston, Mass.) was then added to selected wells. The plates were incubated for a total of 3 days at 37° C. in a 5% CO2 incubator. ^3H-thymidine incorporation by the PMBC was determined as described earlier in this example. […] Positive controls for lymphocyte proliferation included immobilized anti-CD3 and anti-LFA-1 (60.3) monclonal antibodies.

[5] = tested on: human basophils; assay: Basophil histamine release; assay type: cell-based; settings: added simultaneously with anti-IgE 0.01 μg/ml
Text: Basophils were obtained at low purity by dextran sedimentation of erythrocytes in EDTA-anti-coagulated peripheral venous blood, at slightly enriched percentages from mononuclear cell layers of density gradient Percoll centrifugation preparations, and at high purity (>70%) from leukophoresis packs following clutriation and density gradient centrifugation. In the assays, polyclonal goat anti-human IgE and ICAM-R monoclonals antibodies ICR-1.1, ICR-2.1, ICR-4.2 and ICR-8.1 were used alone or in combination. The […] was used to induce histamine release which was quantitated using an automated fluorometric assay after a 45 minute incubation with secretagogue. LTC4 production was measured by radioimmunoassay as previously described in Schleimer et al., J. Immunol., 143:1310-1317 (1989), while IL-4 in cell supernatants was assayed using the IL-4 Quantikine ELSA kit (R&D Systems, Minneapolis, Minn.). Basophil adhesion to unstimulated or IL-1 treated monolayers of human umbilical vein endothelial cells was examined as previously described in Bochner et al., J. Clin. Invest., 81: 1355-1360 (1988) and Bochner et al., J. Immunol., 142: 3180-3186 (1989), in the presence or absence of ICR-2.1 monoclonal antibody. […]

Molecule | proliferative response to anti-CD3 after prepulse, with added IL-2 [1] | PBMC activation marker expression after 16 hours [2] | PBMC activation marker expression after 3 days [2] | stimulation of homotypic cell-cell aggregation [3] | PBMC proliferation (3H-thymidine) [4] | anti-IgE-induced histamine release [5]
ICR-1.1: anti-ICAM-R monoclonal antibody, IgG2a, domain 1, ATCC HB 11053 (antibody, V domains shown) VH: QVQLQQSGAELAKPGASVKMSCKASGYTFTVYWMHWVKQRPGQGLEWIGYINPNTDYTEYNQRFQDKATLTADKSSSTAYMQLSSLTSEDSAVYYCARWGGNSYGLDYWGQGTSVTVSS VL: QIVLTQSPALMSASPGEKVTMTCSASSSVSYIYWYQQKPRSSPKPWIYLTSNLASGVPARFSGSGSGASYSLTISIMEAEDAATYYCQQWKSIPLTFGAGTKLELK | completely restored proliferative responses | induced expression of CD69, but not the transferrin receptor | significant upregulation of both the transferrin and IL-2 receptors | stimulated homotypic cell-cell aggregation | did not induce PMBC proliferation even in the presence of rIL2 | –
ICR-8.1: anti-ICAM-R monoclonal antibody, IgG1, domain 1, ATCC HB 11232 (antibody, V domains shown) VH: EIQLQQTGPELVKPGASVKISCKASGYSFTDCIILWVKQSHGKGLEWIGKINPYFGTTTYNLKFKGKATLTVDKSSSTAHMQLNSLTSEDSAVYYCARKEAYPDAMDYWGQGTSVTVSS VL: DAVMTQTPLSLPVSLGDQASISCRSSQSLVHSNGDTYLHWYLQKPGQSPQLLIYKVSNRFSGVPDRFSGSGSGTDFTLKLSRVEAEDLGVYFCSQSTHVPYTFGGGTKLEIK | – | – | – | – | – | neither ICR-8.1 nor the domain 2-specific monoclonal antibody ICR-4.2 had any significant potentiating activity
